Four molecules from article PMC8050316, “Tissue plasminogen activator is a ligand of cation-independent mannose 6-phosphate receptor and consists of glycoforms that contain mannose 6-phosphate” (Scientific Reports, 2021) can be followed below.

Assay [1] concerns the target human cation-independent mannose 6-phosphate receptor domains 1-15 (entire extracellular region) (human) (UniProt P11717). The assay can be described thus: SPR; biotinylated human CI-MPR d1-15 on a streptavidin-coupled CM5 chip, tPA injected at various concentrations, 25 °C, 40 µl/min for 2 min, response at equilibrium fit with a one site specific binding model.
For assay [2], the target named is human cation-independent mannose 6-phosphate receptor domains 1-5 (human) (UniProt P11717). The assay can be described thus: SPR; C-terminally biotinylated human CI-MPR d1-5 on a streptavidin chip; tPA injected at various concentrations, one site specific binding fit; tPA at 120 nM with 5 mM M6P or 5 mM G6P. A general note: Surface plasmon resonance follows binding to a sensor surface in real time, without labels.
Sequence of human cation-independent mannose 6-phosphate receptor domains 1-5 (human) (P11717 36-763): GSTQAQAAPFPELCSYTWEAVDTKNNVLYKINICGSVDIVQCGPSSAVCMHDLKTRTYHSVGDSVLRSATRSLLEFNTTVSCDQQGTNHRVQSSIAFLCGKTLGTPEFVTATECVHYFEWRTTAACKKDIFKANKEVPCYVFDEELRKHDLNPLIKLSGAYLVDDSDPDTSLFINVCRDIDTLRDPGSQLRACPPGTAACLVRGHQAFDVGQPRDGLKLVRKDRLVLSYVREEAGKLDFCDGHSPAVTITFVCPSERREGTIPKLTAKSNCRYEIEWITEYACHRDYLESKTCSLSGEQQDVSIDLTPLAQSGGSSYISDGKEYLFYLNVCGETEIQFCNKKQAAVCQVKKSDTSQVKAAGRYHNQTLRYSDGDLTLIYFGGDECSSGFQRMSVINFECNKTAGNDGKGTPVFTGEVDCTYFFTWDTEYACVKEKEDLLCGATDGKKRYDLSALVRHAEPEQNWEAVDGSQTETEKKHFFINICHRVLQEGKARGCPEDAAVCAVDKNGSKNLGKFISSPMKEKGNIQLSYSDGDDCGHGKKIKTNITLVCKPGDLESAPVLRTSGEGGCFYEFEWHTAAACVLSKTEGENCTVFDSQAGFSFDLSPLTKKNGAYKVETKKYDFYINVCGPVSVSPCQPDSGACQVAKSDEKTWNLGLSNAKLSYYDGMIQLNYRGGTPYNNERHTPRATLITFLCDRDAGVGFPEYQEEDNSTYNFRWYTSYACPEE

For assay [3], the target named is bovine cation-independent mannose 6-phosphate receptor domains 1-15 (entire extracellular region) (bovine) (UniProt P08169). The assay can be described thus: SPR; bovine CI-MPR d1-15 amine coupled to a CM5 chip, tPA injected at various concentrations, 25 °C, response at equilibrium fit with a one site specific binding model.
Sequence of bovine cation-independent mannose 6-phosphate receptor domains 1-15 (entire extracellular region) (bovine) (P08169 47-2296): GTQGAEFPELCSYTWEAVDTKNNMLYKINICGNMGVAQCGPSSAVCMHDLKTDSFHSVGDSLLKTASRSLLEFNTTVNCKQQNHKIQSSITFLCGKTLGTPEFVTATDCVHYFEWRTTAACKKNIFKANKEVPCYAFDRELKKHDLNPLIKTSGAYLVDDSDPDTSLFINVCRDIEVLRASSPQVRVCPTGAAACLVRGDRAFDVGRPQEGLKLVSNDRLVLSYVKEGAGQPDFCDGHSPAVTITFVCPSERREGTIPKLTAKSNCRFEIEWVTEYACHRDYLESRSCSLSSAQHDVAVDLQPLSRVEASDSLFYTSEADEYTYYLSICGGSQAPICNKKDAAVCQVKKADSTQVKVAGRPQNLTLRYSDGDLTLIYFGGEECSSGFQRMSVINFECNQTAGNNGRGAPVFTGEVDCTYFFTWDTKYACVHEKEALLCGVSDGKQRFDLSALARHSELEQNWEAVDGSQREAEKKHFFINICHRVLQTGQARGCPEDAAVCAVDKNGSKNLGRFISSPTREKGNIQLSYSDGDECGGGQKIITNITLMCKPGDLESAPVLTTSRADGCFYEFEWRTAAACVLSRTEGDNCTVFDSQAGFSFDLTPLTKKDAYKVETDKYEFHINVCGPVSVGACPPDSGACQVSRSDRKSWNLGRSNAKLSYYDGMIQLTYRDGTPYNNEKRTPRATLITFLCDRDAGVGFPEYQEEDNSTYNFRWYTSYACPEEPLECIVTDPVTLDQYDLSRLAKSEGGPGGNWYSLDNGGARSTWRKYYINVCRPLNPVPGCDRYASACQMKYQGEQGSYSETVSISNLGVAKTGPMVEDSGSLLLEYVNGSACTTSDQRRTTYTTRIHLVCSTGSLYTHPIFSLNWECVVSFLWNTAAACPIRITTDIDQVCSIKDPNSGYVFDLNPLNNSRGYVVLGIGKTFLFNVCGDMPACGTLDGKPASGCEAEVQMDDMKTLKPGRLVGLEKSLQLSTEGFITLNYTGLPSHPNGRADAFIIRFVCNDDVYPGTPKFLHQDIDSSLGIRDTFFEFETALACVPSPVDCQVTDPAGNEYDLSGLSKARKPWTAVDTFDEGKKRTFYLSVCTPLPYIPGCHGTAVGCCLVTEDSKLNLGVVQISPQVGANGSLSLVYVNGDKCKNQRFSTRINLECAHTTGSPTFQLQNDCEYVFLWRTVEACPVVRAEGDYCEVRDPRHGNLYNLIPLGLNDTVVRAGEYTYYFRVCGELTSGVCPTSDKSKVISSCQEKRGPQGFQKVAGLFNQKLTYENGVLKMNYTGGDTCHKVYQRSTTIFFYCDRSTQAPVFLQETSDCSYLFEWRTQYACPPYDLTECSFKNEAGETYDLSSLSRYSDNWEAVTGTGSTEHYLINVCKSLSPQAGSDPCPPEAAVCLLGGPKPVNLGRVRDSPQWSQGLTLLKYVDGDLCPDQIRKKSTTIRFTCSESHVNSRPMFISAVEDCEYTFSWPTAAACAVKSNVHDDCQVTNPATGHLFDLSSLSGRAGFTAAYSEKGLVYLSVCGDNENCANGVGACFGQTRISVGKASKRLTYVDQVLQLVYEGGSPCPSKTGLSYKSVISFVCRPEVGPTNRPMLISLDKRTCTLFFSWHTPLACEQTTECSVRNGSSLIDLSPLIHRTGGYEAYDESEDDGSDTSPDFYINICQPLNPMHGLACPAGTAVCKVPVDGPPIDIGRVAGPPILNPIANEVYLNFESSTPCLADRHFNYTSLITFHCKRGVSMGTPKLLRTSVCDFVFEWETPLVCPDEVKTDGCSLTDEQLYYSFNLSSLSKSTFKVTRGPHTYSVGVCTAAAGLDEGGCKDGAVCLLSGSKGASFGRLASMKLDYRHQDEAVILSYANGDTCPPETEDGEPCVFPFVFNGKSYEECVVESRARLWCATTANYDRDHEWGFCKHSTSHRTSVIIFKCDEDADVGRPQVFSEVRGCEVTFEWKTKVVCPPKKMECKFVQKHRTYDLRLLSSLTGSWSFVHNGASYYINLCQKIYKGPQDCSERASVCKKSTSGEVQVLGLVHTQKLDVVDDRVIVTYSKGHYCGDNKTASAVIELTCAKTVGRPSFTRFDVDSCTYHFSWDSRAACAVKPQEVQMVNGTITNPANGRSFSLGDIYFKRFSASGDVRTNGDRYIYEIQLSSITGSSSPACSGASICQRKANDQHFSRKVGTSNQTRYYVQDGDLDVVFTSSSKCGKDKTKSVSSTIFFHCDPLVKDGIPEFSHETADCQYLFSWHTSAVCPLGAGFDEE
Assay [4] has the same target. In words: SPR; bovine CI-MPR d1-15 amine coupled; mock- or phosphatase-treated proteins injected in 10 mM HEPES, 150 mM sodium acetate, 5 mM β-glycerophosphate, 0.005% polysorbate-20, pH 7.4; tPA at 80 nM with 5 mM M6P, 5 mM G6P or no inhibitor.
The target in assay [5] is T1, bovine cation-independent mannose 6-phosphate receptor domains 1-15 (entire extracellular region) (bovine, UniProt P08169 47-2296).
T1 construct: cation-independent mannose 6-phosphate receptor (CI-MPR), bovine, domains 1-15, amino acids 47-2296; also called bovine CI-MPR d1-15; CI-MPR d1-15; source: Sf9, secreted, purified (Ni-NTA, Sephacryl S-300)
T1 sequence (P08169 47-2296): as above
The assay can be described thus: SPR; recombinant tPA, native tPA or β-glucuronidase amine coupled; bovine CI-MPR d1-15 at 20 nM injected after preincubation with M6P, G6P or αMeMan (0.1, 1.0, 5.0 mM). The settings on record: both partners purified.

Take “native tissue plasminogen activator isolated from a human melanoma cell line (enzyme)”: the Kd in assay [1] was found to be 81 nM; in assay [2], 155 nM; in assay [3], 214 nM. Further, the percent decrease in response at equilibrium with 5 mM G6P in assay [2] was 21%. Further, the percent decrease in response at equilibrium with 5 mM M6P in assay [2] is 39%.
In assay [1], “recombinant human tissue plasminogen activator (Cathflo Activase, alteplase) (enzyme)” registered a dissociation constant Kd of 23 nM. Moreover, in assay [2], the Kd turned out to be 134 nM, the percent decrease in response at equilibrium with 5 mM G6P turned out to be 20% and the percent decrease in response at equilibrium with 5 mM M6P worked out at 40%. In assay [4], this molecule returned a percent decrease in average response with 5 mM G6P of 26% and a percent decrease in average response with 5 mM M6P of 55%. This molecule also returned a Kd in assay [3] of 108 nM.
In assay [4], “phosphatase-treated recombinant tissue plasminogen activator (enzyme)” had a percent decrease in response with 5 mM G6P of 12% and a percent decrease in response with 5 mM M6P of 13%.

B1: human β-glucuronidase (enzyme, UniProt P08236 23-651, looked up)
chain: LQGGMLYPQESPSRECKELDGLWSFRADFSDNRRRGFEEQWYRRPLWESGPTVDMPVPSSFNDISQDWRLRHFVGWVWYEREVILPERWTQDLRTRVVLRIGSAHSYAIVWVNGVDTLEHEGGYLPFEADISNLVQVGPLPSRLRITIAINNTLTPTTLPPGTIQYLTDTSKYPKGYFVQNTYFDFFNYAGLQRSVLLYTTPTTYIDDITVTTSVEQDSGLVNYQISVKGSNLFKLEVRLLDAENKVVANGTGTQGQLKVPGVSLWWPYLMHERPAYLYSLEVQLTAQTSLGPVSDFYTLPVGIRTVAVTKSQFLINGKPFYFHGVNKHEDADIRGKGFDWPLLVKDFNLLRWLGANAFRTSHYPYAEEVMQMCDRYGIVVIDECPGVGLALPQFFNNVSLHHHMQVMEEVVRRDKNHPAVVMWSVANEPASHLESAGYYLKMVIAHTKSLDPSRPVTFVSNSNYAADKGAPYVDVICLNSYYSWYHDYGHLELIQLQLATQFENWYKKYQKPIIQSEYGAETIAGFHQDPPLMFTEEYQKSLLEQYHLGLDQKRRKYVVGELIWNFADFMTEQSPTRVLGNKKGIFTRQRQPKSAAFLLRERYWKIANETRYPHSVAKSQCLENSLFT
modifications: M6P on its N-linked glycans
notes: β-glucuronidase, human, lysosomal enzyme; also called mock-treated β-glucuronidase
Regarding B1, the binding result in assay [5] was “binds”.

What is called Kd is the concentration at which binding is half-saturated.
